From publication PMC10397247
Each block holds one binder with its values, some of them ahead of it.

Assays:
4H953-bN = target: T1, 4H953-bN; assay: two-hybrid library CCNG1;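 further: natural log of median RNA to DNA barcode read ratio; higher means stronger binding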
T1 chain: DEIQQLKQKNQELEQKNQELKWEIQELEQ

4H883-bN = target: T2, 4H883-bN; assay: two-hybrid library CCNG1;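 further: natural log of median RNA to DNA barcode read ratio; higher means stronger binding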
T2 chain: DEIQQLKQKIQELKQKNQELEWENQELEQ

4H717-bN = target: T3, 4H717-bN; assay: two-hybrid library CCNG1;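 further: natural log of median RNA to DNA barcode read ratio; higher means stronger binding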
T3 chain: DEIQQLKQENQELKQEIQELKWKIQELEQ

4H908-bN = target: T4, 4H908-bN; assay: two-hybrid library CCNG1;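 further: natural log of median RNA to DNA barcode read ratio; higher means stronger binding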
T4 chain: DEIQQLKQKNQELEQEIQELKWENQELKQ

4H797-bN = target: T5, 4H797-bN; assay: two-hybrid library CCNG1
T5 chain: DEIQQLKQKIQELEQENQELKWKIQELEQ

4H607-bN = target: T6, 4H607-bN; assay: two-hybrid library CCNG1
T6 chain: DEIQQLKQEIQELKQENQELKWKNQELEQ

4H3855-bN = target: T7, 4H3855-bN; assay: two-hybrid library CCNG1
T7 chain: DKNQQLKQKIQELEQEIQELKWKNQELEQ

4H454-bN = target: T8, 4H454-bN; assay: two-hybrid library CCNG1
T8 chain: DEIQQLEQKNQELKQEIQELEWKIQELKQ

4H754-bN = target: T9, 4H754-bN; assay: two-hybrid library CCNG1
T9 chain: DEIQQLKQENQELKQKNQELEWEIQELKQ

4H687-bN = target: T10, 4H687-bN; assay: two-hybrid library CCNG1
T10 chain: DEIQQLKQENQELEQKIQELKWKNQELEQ

4H72-bN = target: T11, 4H72-bN; assay: two-hybrid library CCNG1
T11 chain: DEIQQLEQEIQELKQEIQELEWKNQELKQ

4H4001-bN = target: T12, 4H4001-bN; assay: two-hybrid library CCNG1
T12 chain: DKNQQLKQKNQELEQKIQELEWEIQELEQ

4H967-bN = target: T13, 4H967-bN; assay: two-hybrid library CCNG1
T13 chain: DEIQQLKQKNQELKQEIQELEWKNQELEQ

4H568-bN = target: T14, 4H568-bN; assay: two-hybrid library CCNG1
T14 chain: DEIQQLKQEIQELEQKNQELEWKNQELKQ

4H918-bN = target: T15, 4H918-bN; assay: two-hybrid library CCNG1
T15 chain: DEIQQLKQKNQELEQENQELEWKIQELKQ

4H796-bH = target: T16, 4H796-bH; assay: two-hybrid library CCNG1
T16 chain: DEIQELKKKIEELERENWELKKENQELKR

4H932-bH = target: T17, 4H932-bH; assay: two-hybrid library CCNG1
T17 chain: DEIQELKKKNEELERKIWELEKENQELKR

4H349-bH = target: T18, 4H349-bH; assay: two-hybrid library CCNG1
T18 chain: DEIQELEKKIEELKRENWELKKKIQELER

4H3381-bH = target: T19, 4H3381-bH; assay: two-hybrid library CCNG1
T19 chain: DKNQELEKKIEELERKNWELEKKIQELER

4H730-bH = target: T20, 4H730-bH; assay: two-hybrid library CCNG1
T20 chain: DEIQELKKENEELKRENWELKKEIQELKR

4H949-bH = target: T21, 4H949-bH; assay: two-hybrid library CCNG1
T21 chain: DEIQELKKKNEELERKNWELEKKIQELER

4H56-bH = target: T22, 4H56-bH; assay: two-hybrid library CCNG1
T22 chain: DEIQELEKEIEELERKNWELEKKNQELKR

P9 = target: T23, P9; assay: two-hybrid library CC1; conditions: mean of both orientations
T23 chain: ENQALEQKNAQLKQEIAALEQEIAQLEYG

P8 = target: T24, P8; assay: two-hybrid library CC1
T24 chain: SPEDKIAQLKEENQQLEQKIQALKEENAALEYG

P8mS = target: T25, P8mS; assay: two-hybrid library CC1; conditions: mean of both orientations
T25 chain: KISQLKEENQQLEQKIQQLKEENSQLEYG

4H697-AA = target: T26, 4H697-AA; assay: two-hybrid library CCmax; conditions: mean of both orientations
T26 chain: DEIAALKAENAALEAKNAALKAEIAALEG

4H3697-AA = target: T27, 4H3697-AA; assay: two-hybrid library CCmax; conditions: mean of both orientations
T27 chain: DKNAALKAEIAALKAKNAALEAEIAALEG

4H3606-AA = target: T28, 4H3606-AA; assay: two-hybrid library CCmax; conditions: mean of both orientations
T28 chain: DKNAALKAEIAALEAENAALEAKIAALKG

4H32-AA = target: T29, 4H32-AA; assay: two-hybrid library CCmax; conditions: mean of both orientations
T29 chain: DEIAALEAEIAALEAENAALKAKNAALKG

4H3413-AA = target: T30, 4H3413-AA; assay: two-hybrid library CCmax; conditions: mean of both orientations
T30 chain: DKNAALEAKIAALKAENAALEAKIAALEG

4H982-AA = target: T31, 4H982-AA; assay: two-hybrid library CCmax; conditions: mean of both orientations
T31 chain: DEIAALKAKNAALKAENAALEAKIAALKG

4H3162-AA = target: T32, 4H3162-AA; assay: two-hybrid library CCmax; conditions: mean of both orientations
T32 chain: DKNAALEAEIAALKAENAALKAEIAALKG

4H2907-AA = target: T33, 4H2907-AA; assay: two-hybrid library CCmax
T33 chain: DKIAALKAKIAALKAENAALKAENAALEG

4H3378-AA = target: T34, 4H3378-AA; assay: two-hybrid library CCmax; conditions: mean of both orientations
T34 chain: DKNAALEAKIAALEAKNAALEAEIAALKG

4H3133-AA = target: T35, 4H3133-AA; assay: two-hybrid library CCmax; conditions: mean of both orientations
T35 chain: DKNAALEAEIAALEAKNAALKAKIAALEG

4H3865-AA = target: T36, 4H3865-AA; assay: two-hybrid library CCmax; conditions: mean of both orientations
T36 chain: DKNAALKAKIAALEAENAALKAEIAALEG

4H3056-AA = target: T37, 4H3056-AA; assay: two-hybrid library CCmax; conditions: mean of both orientations
T37 chain: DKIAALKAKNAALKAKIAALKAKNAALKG

4H3631-AA = target: T38, 4H3631-AA; assay: two-hybrid library CCmax; conditions: mean of both orientations
T38 chain: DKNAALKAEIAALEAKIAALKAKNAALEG

4H384-AA = target: T39, 4H384-AA; assay: two-hybrid library CCmax; conditions: mean of both orientations
T39 chain: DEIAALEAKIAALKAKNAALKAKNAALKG

4H3588-AA = target: T40, 4H3588-AA; assay: two-hybrid library CCmax; conditions: mean of both orientations
T40 chain: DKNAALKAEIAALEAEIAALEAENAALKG

4H340-AA = target: T41, 4H340-AA; assay: two-hybrid library CCmax; conditions: mean of both orientations
T41 chain: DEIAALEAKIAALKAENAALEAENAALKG

4H3718-AA = target: T42, 4H3718-AA; assay: two-hybrid library CCmax; conditions: mean of both orientations
T42 chain: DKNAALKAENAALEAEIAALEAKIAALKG

4H932-bN = target: T43, 4H932-bN; assay: two-hybrid library CCNG1
T43 chain: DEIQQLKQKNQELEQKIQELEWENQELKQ

4H949-bN = target: T44, 4H949-bN; assay: two-hybrid library CCNG1
T44 chain: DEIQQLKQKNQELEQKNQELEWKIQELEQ

4H56-bN = target: T45, 4H56-bN; assay: two-hybrid library CCNG1
T45 chain: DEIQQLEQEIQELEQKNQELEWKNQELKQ

4H349-bN = target: T46, 4H349-bN; assay: two-hybrid library CCNG1
T46 chain: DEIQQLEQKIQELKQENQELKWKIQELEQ

4H796-bN = target: T47, 4H796-bN; assay: two-hybrid library CCNG1
T47 chain: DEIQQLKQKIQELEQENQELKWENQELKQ

4H730-bN = target: T48, 4H730-bN; assay: two-hybrid library CCNG1
T48 chain: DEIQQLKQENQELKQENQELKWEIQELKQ

Binder: SPEDKIAQLKEENQQLEQKIQALKEENAALEYG [P8]
interaction score (P9): -1.88
interaction score (P8): -2.5
interaction score (P8mS): -2.75

Binder: DKIAALKAKIAALKAENAALKAENAALEG [4H2907-AA]
interaction score (4H697-AA): -1.18
interaction score (4H3697-AA): -1.97
interaction score (4H3606-AA): 0.48
interaction score (4H32-AA): 2.38
interaction score (4H3413-AA): -2.21
interaction score (4H982-AA): -1.58
interaction score (4H3162-AA): -1.39
interaction score (4H2907-AA): -0.959
interaction score (4H3378-AA): -1.66
interaction score (4H3133-AA): -1.24
interaction score (4H3865-AA): -1.75
interaction score (4H3056-AA): -2.08
interaction score (4H3631-AA): -1.81
interaction score (4H384-AA): 1.15
interaction score (4H3588-AA): 1.57
interaction score (4H340-AA): 1.31
interaction score (4H3718-AA): -1.65

Binder: DEIQQLEQKIQELKQENQELKWKIQELEQ [4H349-bN]
interaction score (4H932-bN): -0.258
interaction score (4H949-bN): -0.958
interaction score (4H56-bN): -0.3
interaction score (4H349-bN): -1.89
interaction score (4H796-bN): -0.249
interaction score (4H730-bN): -1.05

Second part, the binder after the results:

interaction score (4H953-bN): -0.653
interaction score (4H883-bN): -0.0328
interaction score (4H717-bN): -0.464
interaction score (4H908-bN): -0.268
interaction score (4H797-bN): -0.544
interaction score (4H607-bN): -0.914
interaction score (4H3855-bN): 0.124
interaction score (4H454-bN): -0.525
interaction score (4H754-bN): -0.585
interaction score (4H687-bN): -1.97
interaction score (4H72-bN): -0.0369
interaction score (4H4001-bN): 0.118
interaction score (4H967-bN): -0.415
interaction score (4H568-bN): 0.0333
interaction score (4H918-bN): -1.48
Binder: DKNQQLKQKIQELEQEIQELKWKNQELEQ [4H3855-bN]

interaction score (4H796-bH): -1.28
interaction score (4H932-bH): -0.263
interaction score (4H349-bH): -1.42
interaction score (4H3381-bH): 1.27
interaction score (4H730-bH): -1.42
interaction score (4H949-bH): 0.43
interaction score (4H56-bH): -1.78
Binder: DKNQELEKKIEELERKNWELEKKIQELER [4H3381-bH]
